Earlier results, collected in article PMC10301793 (Marine Drugs, 2023).
Where no end group is shown, it is not given here.

Target: α6/α3β4 nAChR (Rattus norvegicus, UniProt P04757+P12392+P43143)
Details: cited from earlier work

[D1G,∆Q14]LvIC: LvIC analogue (GCCANPVCNGKHC-NH2; ends and bridges not checked)
IC50: 19 nM
